Results as given in publication PMC5775292, “Comprehensive reduction of amino acid set in a protein suggests the importance of prebiotic amino acids for stable proteins” (Scientific Reports, 2018).

Biological target: the molecule itself
Test: SEC; analytical gel filtration, Superdex 200 (1.0 x 30 cm), 20 mM potassium phosphate pH 6.0, 150 mM KCl, 1 mM EDTA; initial protein concentration 20 uM, 0.2 ml loaded, 0.5 ml/min; apparent molar mass from a calibration curve

B1: Bacillus subtilis nucleoside diphosphate kinase (enzyme, UniProt P31103 1-149, looked up)
chain: MMEKTFIMVKPDGVQRQLIGDILSRFERKGLQLAGAKLMRVTEQMAEKHYAEHQGKPFFGELVEFITSGPVFAMVWEGENVIEVTRQLIGKTNPKEALPGTIRGDYGMFVGKNIIHGSDSLESAEREINIFFKNEELVSYQQLMAGWIY
notes: nucleoside diphosphate kinase, Bacillus subtilis; construct not described; also called B. subtilis NDK; extant mesophilic NDK
- stoichiometry N: 6
